# From the DeepSol protein solubility set
# Test: soluble on expression in E. coli; label from the status in PepcDB or PDB records
row,Sequence,soluble on expression in E. coli
1,MSLTKTVLILTAAIDLDGGDWFSPCWERVTRSMALGKAGDIIHGCVPGAALAIREEKPIAAGRSAQNRRGSFREQEDGSYVLLAGRIFNRTDLLRRFDLKQGMDDADLYAAVSARMGEAAYRAIVGDYAALQWFPQRRSLRLARSGTSNMPLHVWRDGSRIVISSLPGPILASGVPARINDDRVADELLLFSPDGRTSFYAGMHRVPGGGEEVHDPSGFKARRLWSVKDAPEIRLRRDEDYVEALDVLFDEAVSATMDGSSAPGILLSGGFDSQTVASYAVKRLPAGRRLQAFTSVPMQGWTPPPRPGIFGDESAHVRALCAMYPQIEPHFIEAADFRYGERGHRQFLVGGWPVFNEMNAHWSHASLEQAADLGCDLMLTGDLGNSGFSYDGLTGYPTWLREGQWFRLLREIGKSDDPRPFWRKLISLAVMPHVPVRWKRKMDRHRPWRPSAFATWCGMREDFARESGVLDRAEAGGHDIDFYDIPSARTWRANVVDSLNDGAPEIYLGYQLLYGVPMRDPTAYLPLLEFCAGIPDEQYLRDGQTRWLARRLMQGRVPEMVRLENRIGAQSSDWPQRFARDREDLIAEMERMKADERLAKIFDFERLAANLREWDGSDRPESRSNFKINAAVGRAMVSARFVSHVEGRNVGEGHHHHHH,soluble
2,MGSDKIHHHHHHMLQGKVSVIVPAYNAARLLERCVRSITGQTYPALEVIVVDDGSKDDTGKIADQLAAEDSRIRVVHKTNGGVSAARNDALKLVEGEWITFVDSDDYLEPDFLRSLLDGEVADLVIGGYHTVGANEIPSANYPTDTAHSPEAIKRALEARLTDMTFLCPWGKLFRTSLVRSLRLIFNTEMKVGEDVVFVWSYLAHCSSLAFKQGQGYDYYTEPGADFKYALDETVSLQTIERILGVLDGLKRNFGMDTEHARCHVLNYYIWLFKLYVNRNYLLRDLARMKNFFYYPLILDYYKTYRRTSKDKLLVYLLLKLRLSGVLYLMIKLYY,not soluble
3,MSLIMITAEMVPPDLLIKRLAIYLKENVKTVDPPEWALLAKTASFKERVPDNAEDWWYIRAASLLRKLYVNSIIGIEKTRTIYGGRKRRGTRPEKFVKAPGHVNRLIFQQLEKAGLVQKIKNKGRSLSPKGRSLLDKLALEIFKELAENNTSLKVYLELEHHHHHH,soluble
4,MGHHHHHHSHMAAGTLYTYPENWRAFKALIAAQYSGAQVRVLSAPPHFHFGQTNRTPEFLRKFPAGKVPAFEGDDGFCVFESNAIAYYVSNEELRGSTPEAAAQVVQWVSFADSDIVPPASTWVFPTLGIMHHNKQATENAKEEVRRILGLLDAYLKTRTFLVGERVTLADITVVCTLLWLYKQVLEPSFRQAFPNTNRWFLTCINQPQFRAVLGEVKLCEKMAQFDAKKFA,not soluble
5,MGHHHHHHSHMVPGGKPILCPRRTTAQLGPRRNPAWSLQAGRLFSTQTAEDKEEPLHSIISSTESVQGSTSKHEFQAETKKLLDIVARSLYSEKEVFIRELISNASDALEKLRHKLVSDGQALPEMEIHLQTNAEKGTITIQDTGIGMTQEELVSNLGTIARSGSKAFLDALQNQAEASSKIIGQFGVGFYSAFMVADRVEVYSRSAAPGSLGYQWLSDGSGVFEIAEASGVRTGTKIIIHLKSDCKEFSSEARVRDVVTKYSNFVSFPLYLNGRRMNTLQAIWMMDPKDVREWQHEEFYRYVAQAHDKPRYTLHYKTDAPLNIRSIFYVPDMKPSMFDVSRELGSSVALYSRKVLIQTKATDILPKWLRFIRGVVDSEDIPLNLSRELLQESALIRKLRDVLQQRLIKFFIDQSKKDAEKYAKFFEDYGLFMREGIVTATEQEVKEDIAKLLRYESSALPSGQLTSLSEYASRMRAGTRNIYYLCAPNRHLAEHSPYYEAMKKKDTEVLFCFEQFDELTLLHLREFDKKKLISVETDIVVD,soluble
6,MLHTLHRSPWLTDFAALLRLLSEGDELLLLQDGVTAAVDGNRYLESLRNAPIKVYALNEDLIARGLTGQISNDIILIDYTDFVRLTVKHPSQMAW,soluble
7,MSFTDNWSDEEFIRQMKELIGNEGDMHVTCNHSEGEQVTETHVTREKALWYRHNGDREGMLVCLNLSRVEVLNQRYFLGPCPF,not soluble
8,MGSDKIHHHHHHMLGSNMLLTNRIDLRSYHTESCSHTHDFAQLVLPVSGSMELEVGHYSGVVNDDIGVYIAPNEQHCFAGSQKNLFLVIDATTQNSLRDEAFESNILNLTASTKKLIQFTHHYLAHNERDFFTDSLINQLLFHFAASSFSPEPDLVVIRAKQWIDLYFADSVNVNRVAKHCYLSISQLQRRFKQMLGCGIAEYWRMKKLLHAKKLLSQKNCSIEAIAFEVGYENLPAFSRRFSKVFGESPSQWRSKALTAKKMREIDK,not soluble
9,MQTETIHNIPYVNSNLTSFIDYLEKHYIDQKIGAVISTVNPEIAFAAIKDRDYFDVLSSSNFILPDGIGVVMMSRLTNNRLQSRIAGYDVFKELLGVANKKKKRIFLYGAKKDVIKGVVSKISSEYPNIKIAGYSDGYVQDRTLVAKQIARANPDMVFVALGYPHQEKFIHNYRHLFPKAVSIGLGGSFDVFSGNVKRAPSWMIRLNLEWFYRLILNPWRWKRMLSIPKYALTVLKEEKNKKTFYPKPEKDHTKQI,not soluble
10,MGSDKIHHHHHHMLESTEKGEVRKTVGNYRLILMNDPNLQGAFRLNMFTDKIDITRDLGWYRESDSLTDVDLKFLVVYLEKHYGLSNEKRIEDVIKVVANENRYHPVLDRINSITWDGRERIRYALHHFLGAEVSEYTYEVMKLFMIGTIARISCPGIKFEVMLCLVGGQGAGKSTFLRFLAMEDDWFTDDLKKMDDDNVYRKIQGHLIIEFPEMVAILNAKNVEDTKSFMSRQKDTYKTPYDRHPKDHKRQCVFAGSSNSLDFLPMDRSGNRRFLPILCNMEEAETHILDDEKTSREYIDQMWAEAMEIYRSGKCQLRLPKEMEKELCEYQKQFMQEDTKKELILDYLEHYEGSMVCSRQLYSEALGNDGNPAQWEIREINDIMNNCSDWIAFSNPRHFPEPYRRQKGWEKPDNRGQDFQPITKEQMEQLSLPPEWMER,not soluble
11,MRLLVTGGAGFIGSHFVRQLLAGAYPDVPADEVIVLDSLTYAGNRANLAPVDADPRLRFVHGDIRDAGLLARELRGVDAIVHFAAESHVDRSIAGASVFTETNVQGTQTLLQCAVDAGVGRVVHVSTNQVYGSIDSGSWTESSPLEPNSPYAASKAGSDLVARAYHRTYGLDVRITRCCNNYGPYQHPEKLIPLFVTNLLDGGTLPLYGDGANVREWVHTDDHCRGIALVLAGGRAGEIYHIGGGLELTNRELTGILLDSLGADWSSVRKVADRKGHDLRYSLDGGKIERELGYRPQVSFADGLARTVRWYRENRGWWEPLKATAPQLPATAVEVSA,soluble
12,MGSDKIHHHHHHLTLRVAVIGSGPAGSSAAETLAASGIETYLFERKLDNAKPCGGAIPLCMVSEFDLPPEIIDRRVRKMKMISPSNREVDINLINEDEYIGMCRREVLDGFLRDRAAKLGANLINATVHKLDIPGNNTDPYTIHYVDHTEGISQGIAKTLKVDLIIGADGANSRVAKEMDAGDYNYAIAFQERIRLPEDKMAYYNDLAEMYVGDDVSTDFYAWVFPKYDHVAVGTGTMHINKASIKQLQAGIRARASEKLAGGKIIKVEAHPIPEHPRPRRVVGRIALVGDAAGYVTKSSGEGIYFAAKSGRMCAETIVEASNSGSRIPTEGDLKIYLKRWDKRYGLTYKVLDILQSVFYRSDATREAFVEMCDDLDVQRLTFDSYLYKTVVPANPITQLKITAKTIGSLIRGNALAP,not soluble
13,MSLTQVRQTDSGDSLETARPADLLVLLDSLRQREATLNAEVIDLQNTLNALQASGNTDQAALESAQARLAALSILVGAVGATGPGVMITIDDPGPGVAPEVMIDVINELRAAGAEAIQINDAHRSVRVGVDTWVVGVPGSLTVDTKVLSPPYSILAIGDPPTLAAAMNIPGGAQDGVKRVGGRMVVQQADRVDVTALRQPKQHQYAQPVKEGHHHHHH,soluble
14,SKDIDMGKEYIIPSPGYRSDRDRSAVPGQHRDPEEPRFRRTRSLECQDALETAARVEGLSLDISVHSHLQILDEEHSKGKYHHGLSVLKPFRTTTKHQHPVDNAGLFSYMTFSWLSPLARVVHKKGELLMEDVWPLSKYESSDVNSRRLERLWQEELNEVGPDAASLRRVVWIFCRTRLILSIVCLMITQLAGFSGPNFQDGCILRSE,soluble
